Assay: label from the status in PepcDB records
For “MISFLLSLVLLIVGYFTYGKFVDKTFGTNDSIETPAESMADGVDYVPMSWPRIFLIQFLNIAGLGPIFGAIAGALWGPVAFLWIVFGCIFAGAVHDYFTGVLSIRNKGVSVAELVGKYLGEIPRKIMVIFSVVLLILVGVVFLTGPADLLKTLTGIDRDIFIVIIVVYYIAATVLPVDKVIGKIYPIFGLCLLIMAVGIGAGIVIEGYNIPEIQLANFHPEGTPIFPFLFITIACGAISGFHATQSPIMARCVKKESEARKVFYGAMIAEGVIALVWAAAAMSFFGDTNGLQEILKAGGPATVVNTISNTVMGKVGAVLAILGVVACPISSGDTAFRSARLTIADAFKLKQDKVIDRFKIAIPLFVVGIALTFIDFGIIWRYFSWSNQTLAMIMLWAASAYMLKAHNNYWITLVPAVFMSAVTCSYILQAPEGFRLNATFSNIAGVVFALVLFGIFIKYCKKENNENCEIVEIEEVKEVIKNK”, the protein production was “failed”.
In the case of “MISILLFALTSFLIGLSGAMAPGPLLTVTVSDSIRRGFRAGPLLVAGHVLGEALLVTLILMGLGYILRSGPAPAILGTAGGAVLIWMGILGFRDSEDTENIPEGGSILRGAIISFANPYFFLWWGAVGAALMYRGLELAGVLGLLAFLAGHWSSDLTWYSLVSFLSSRKSFRMNGRPYKIVMMILSLFLILFGVYFLIESLKAISGYS”, the protein production is reported as “failed”.
With “MISIVIPLYNQVAYTQLCVQSLRRAGLNGVDVLLIDNGSTDGTAEYLKSCSDLRVIRNRENLGCAGAWNQGVRETTSEWVMILNNDVVVSPGWLDGLLEAAGKEGLDVVSPAIREGEYNYDIEGYSQEFVGRMGDVVRRGVADGICFMVRRRVFEVVGLFDENFRIGQFEDADFFRRARNAGFRLGTTGRSFIHHFGSVTQDAIRKNRPERPYVAENRAYFREKWQLTRGRRLIERWRRKLREFAWQKCERMFHGHTLKEKWLGGRLRYYLEHHHHHH” the protein production was “failed”.
In the case of “MISKAISAQCRHLHRAAVLVAVMSALAATGCSKKEAPQAPAPSAGTPQAGAPAAMPEGMSGQQQTAMGRAIFNKRCASCHGTDGNGAGSRSGPALDQAQFKYGRTPEAIRESIVKGRPNGMPAFGAAFQEIEIDTLVGYVMGLTKQ”, the protein production is reported as “failed”.
In the case of “MISLQFFITAFVVVLAPGTGVIYTLAIGLGRGRSAAAWAALGCTLGILPHLAAAILGLAAILHSSALLFQLVKAAGVAYLLYLAWQALRSDGALAIRSEHSHQPGWRIAWRGALINILNPKLSVFFLALLPPFLSGNPASATAEMSLLGLVFMAMTFAVFLLYGAFASAARTYLMQSERALRWMGRGFALVFAGLAARLAMERA”, the protein production is reported as “failed”.
In the case of “MISQASRFAPDQPPKLSCEYLTERVRALFGPHPFASQMSGDQVASLLPEYLAMSQAFPYLQAGSQRDLIFDAMHQNRDIGRDIELTSVVANFICWDETGGHGGILRGGKAALPDILLTENFHSNLLRKDAARLLGRAIRPNYSDRTKQYLHSLYAGLSSKDPLVRCAYMVAFELHAADMIQSLWTTLVKTFKARPDDLEYFRGHVGGEDPAEKYHGEMTGRLIGELVQPGLNDRFLNEFGRAYRLSVQWCRDLLGTAARTGDDHSEMQHHGRCHCGAIKFYVNAPRELSAVRCNCSICQMSGFVHLLVPGDKLRIECGEEFLTTYQFNKNIARHTFCRLCGVKPFYRPRSNPSGYSVNIRCLDRKTIEHLRISEFDGAHWEQAFLSMQQDPESCFEDQRSELEWRAQ”, the protein production is reported as “failed”.
With “MISTWHKNNNSPRLTVSARIVAKRQNTTYHNQPNAGDTSGAHGYHTTSSTTYYVTFQVESGDRIEMSVSGSEYGKLTEGDEGKLTFQGTRYLQFNMENLEHHHHHH” the protein production was “failed”.
With “MITGKRFKFILLTFIFAAGLFFTQAGILFAQDKPDALKLYRQGRSLDSIGRREDARAAYLSAIEICRNELKVNSKNMDSYAVYTWCLFRLGRYKDTELVCSDALKIGRDARIIETLAEAQFFLGNYKDSLRNMEMYIEMAPNGERISVAHFFVGEIYRNTKKYHKADIAYSISVHLEPSNSLWWYRLGIVREAAGEKEGAIAAYQTAVKLRPEFKEAAEALKRVKI” the protein production was “failed”.
For “MITIKKQEIVKLEDVLHLYQAVGWTNYTHQTEMLEQALSHSLVIYLALDGDAVVGLIRLVGDGFSSVFVQDLIVLPSYQRQGIGSSLMKEALGNFKEAYQVQLATEETEKNVGFYRSMGFEILSTYDCTGMIWINREK”, the protein production was “not failed”.
In the case of “MITKQDTIYEWIQNGQLEDALKALFQNIEEEPNTIENYINAGIVLADINEIEKAERFFQRAITIDDKNGAVYYNLANLYYDQGKYRDAIKLYQLASKYNMDKIDTNYMIGMSFNQLDAPTESLPYFMTAAELDKNQDAEVQFQYGLALCHLEMFNQAINQLKIVLDIDSKHVDALYNLGLATYMDTEDLDLAMSYFDKAISIDPNHLLSQHAKKTFEAIKNEEE”, the protein production is reported as “failed”.
For “MITLARTLLLFACLLPSIHVKAEPSLQPHYKIATEADDVVTRVLFDAVSTEFGVSVEYINYASFDAILDAVANEDADFAANITYTDTRAERFSYSRPTNIEYTYLYGLSDSTLDDISRVGVPQNTIYSELIKQYHPELKQVPYKGHNEAVRLLQTGLVDGVVDAINQLKPMLLEGFDAKMLNDQISIKPVSIISKKGHHLEELDTFASFIHGEAVQKQLREQIALYQFELRRSALRDAIKLLPVDLKEPIRIKMESIFPYVVYNPDGTVQGMTADIVLQSCEILDLNCVIISEPNESWESMYRQFMKGEFDILAPLTVSRERHEFSYFPRPHYSPASVMVKRLGYKPNTYSHVSQLISERIGVVKDDFFDQMMTQLLPLKELERFNTQHDLIEALLKGEVDYIPMDTAMLNHFLRLSELVPIEQDTAIGEFYSSQLSIGLVANERGAMLAPYFSRAIAMLGVDKIVAQYDLRPDWRTALEYEVRLATQTQAVFLFVLVLAICVSLYLYRQSNTDNLTGLRNRRSLQVKYRQGVNKDLAILYLDINHFKQINDTYGHLAGDEVLQLLSLKIHRVWSGRSYRIGGDEFILLGYPTQIELSRAVQELSRLDVTDKLCAELKTVTISVGVSEKRKQHMSLEQALHLADEDMYVSKHSSRHYSGSSNYLVQS”, the protein production was “failed”.
With “MITLEKEKVTVNPDIKVIKRDGRMVTFDSSKIYEAILKASETITPITPLIETKLEEIANRVVAEINDRFSHNIKIYEIQSIVEHELLEANEYAIAQEYINYRTKRDFERSQATDINFTINKLV” the protein production was “failed”.
In the case of “MITLSQRIFIILESAWRRRYLIVLPIILMPFIGLTVAKLAPKHYDSHTSMLIQETAKMNPFLEDLAVSTMLKERLSALQTLLHSRHILGSVAEERGYIHESMSPQAIDNEINKLSANLSVSMAGKDLIRIDYRANNPDGMKDTLEAVSRHFTEQLLAPERSSMKDSSKFLSDNIEFRRQELDAAEEKLAEFKSQENTVLPEMQITSLDRLTKLKQRLYERQAELAGAKKRLGSIDLQLSKTNPVIGKIEEQIIRIRGELTLLQAKYTPQHSKVQGKLRNLNRLEEERSRLLSQTQPGLSSEQLWDIASSNSVEDLAKAPPILLSQLEELQQATSKVDALTEETRVLESMIKDIELQASTFGQNEKVLYQLQRDLALKRELYNDLVERFEMAKLTRSLGVFEQEKRVKIIDRPYTPSGPSNLPTILYAIAGVIGGIGFGIGMAIIAELCDTSIRRKDEIATLSTSPVLSRIPPQPVKCFNLSEDTHSTTNNLLSSMSKAN”, the protein production is reported as “failed”.
For “MITMTEVKGKTANESRVFKTSRVFPTDLNDHNTLFGGKILSEMDMVASISASRHSRKECVTASMDWVDFLHPVRSSDCVSYESFVIWTGRTSMEVFVKVVSEYLISGEKRIAATSFVTFVALSKENNPVPVPRVIPDTEEEKESHRIAVLRAEQRHIRKAESKKVATLLTF”, the protein production was “not failed”.
With “MITRTVKAQLLAFATVTAVGVSYVGAEYTGLVDDVLGRGYTVRADFADSGGIFPGAEVTYRGVPVGRVGALRLTGSDGVSVALDIKDGVPRIPADTLAVVANRSAVGEQYVDLQPRTSHGPYLLDGSAIPRGSTRVPLPTTDLVLSLDRLVDSVGKDDLRVTVDELGKAFSGTGPNLSRLVDSGNALVESASESLPQTISLIEDSRKVLKTQADQGSSIKSFAHDLAALSAQLKSSDGDLRKLIGNATPAAQQVNSLLKSTGPRLSVLLANLISGGQVTLARLPGVEQSLVTFPALVAGSYTVVPGDGTTHFGLVVNADDPPPCTQGYGTTRRDPSDTSTREANTDARCTAPRGNKTSVRGAQNAPGASTTSGGTNQAAYVTPYDPETGTATGPDGRPVEIGSTGGQQAVFGRESWQWLLVGPMA” the protein production was “failed”.
With “MITSNLFDLRRWRANMSAMRFFALTSAALPLALMLLTSSFPAAAAEKSAAATKKDVIVEQADANNSPKQHLDQLFSQLKRERDPEKASGIANEIRMEWNDSGSATVNLLMQWADKAIEEKRNPAALDFLDEAIALKPDYAESWNRRATLNFVMGNYRKSMSDIERVLDLEPRHFGALSGMAAILSNSGNDQLTLKAWERFLDIYPAERTAQEQANTLAEKLAGNRT” the protein production was “failed”.
